Where a SMILES comes first, the peptide text is derived from it. [ ]: non-standard residue; d: D form. The star is where a group is joined. X2 = COc1cc2cc(c1Cl)N(C)C(=O)C[C@H](OC(=O)[C@H](C)N(C)C(=O)CCSSCCC(=O)NCCOCCOCCn1nnc3c1CC[C@H]1[C@@H](CC3)[C@@H]1COC(=O)*)[C@]1(C)O[C@H]1[C@H](C)[C@@H]1C[C@@](O)(NC(=O)O1)[C@H](OC)/C=C/C=C(\C)C2; X1 = COc1cc2cc(c1Cl)N(C)C(=O)C[C@H](OC(=O)[C@H](C)N(C)C(=O)CCSSCCC(=O)*)[C@]1(C)O[C@H]1C(C)[C@@H]1C[C@@](O)(NC(=O)O1)[C@H](OC)/C=C/C=C(\C)C2; d(hArg(Et2)) = CCN=C(NCC)NCCCC[C@@H](N)C(=O)O; dPhe(4-Cl) = N[C@H](Cc1ccc(Cl)cc1)C(=O)O; d2Nal = N[C@H](Cc1ccc2ccccc2c1)C(=O)O; d3Pal = N[C@H](Cc1cccnc1)C(=O)O
What was measured:
[1] = target: T1, LHRHR, also known as GnRHR (Homo sapiens, UniProt P30968); experiment: Radioligand binding assay ([125I]-[D-Trp6]-LHRH displacement)
T1 sequence (P30968 1-328): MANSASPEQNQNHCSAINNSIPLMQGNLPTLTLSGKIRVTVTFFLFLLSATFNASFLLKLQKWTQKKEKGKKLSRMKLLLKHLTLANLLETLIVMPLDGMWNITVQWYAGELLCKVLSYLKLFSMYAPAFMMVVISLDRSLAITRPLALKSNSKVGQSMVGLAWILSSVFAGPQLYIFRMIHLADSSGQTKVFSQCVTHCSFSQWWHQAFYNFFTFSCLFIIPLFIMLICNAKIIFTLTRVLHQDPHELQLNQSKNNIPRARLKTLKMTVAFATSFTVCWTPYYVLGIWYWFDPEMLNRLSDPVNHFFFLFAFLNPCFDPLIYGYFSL
Method: An amount of 2 μg of a purified membrane with LHRHR, also known as GnRHR, was incubated with 0.18 nM [125I]-[D-Trp6]-LHRH and compounds of interest in the incubation buffer (50 mM HEPES, pH 7.4, 5 mM MgCl2, 1 mM CaCl2, and 0.2% BSA). The reaction mixtures were incubated for 1 h at 25° C. and then were transferred to a 96-well GF/B filter plate (Millipore Corp., Billerica, MA, USA), which were terminated by manifold filtration and washed with a wash buffer (50 mM HEPES, pH 7.4, and 100 mM NaCl) for six times. The radioactivity bound to the filter was measured by a Topcount® system (PerkinElmer Inc., Waltham, MA, USA). IC50 values were determined by the concentration of a compound required to inhibit 50% of the specific binding of [125I]-[D-Trp6]-LHRH and calculated by nonlinear regression (GraphPad Software, San Diego, CA, USA). The design of these drug conjugates is to actively targeting LHRH-receptor at tumor site and facilitate drug conjugate accumulation in situ. Therefore, selective and strong binding of the synthetic peptide ligand with the receptor is important to allow enrichment of these conjugates, followed by release of the drug payload in the tumor microenvironment.
Compounds of the invention have a binding as low as 0.17 nM.

[2] = In vivo pharmacokinetic profile, mouse single IV dose; conditions: for Vss (I/kg) / clearance / AUC(0-t): Mouse IV, dose 5 mg/kg; for clearance / AUC(0-t): in vivo; for AUC(0-t): read-out: AUC(0-24 hr); for AUC coverage: single intravenous dose
Method: Pharmacokinetic properties of compounds of the invention were measured following the procedures described in Liu et al., Bioconjugate Chem. 2017, 28, 7, 1878-1892.

[3] = test system: HCC1806 triple negative breast cancer; experiment: In vivo anti-tumor activity in triple-negative breast HCC1806 tumor model; parameters: species or system immunodeficient nude mice; conditions: 1 mg/kg to 2.5 mg/kg, every other week, once a week, or twice a week
Method: In vivo anti-tumor activity of Compound 16 was evaluated in triple-negative breast HCC1806 tumor model. HCC1806 cells were suspended with RPMI 1640 medium (phenol red free) and Matrigel™ in 1:1 ratio, and implanted subcutaneously (1×10^6 cells/flank) into the left flank of the immunodeficient nude mice. The tumor volume in mm^3 was calculated by the formula: Volume=(length×width^2)/2. Tumor-bearing mice were randomized (n=8 per group) when the average tumor volume was approximately at 210 mm^3 on day 10 after inoculation. Compound 16 was dissolved in DMA, cremorphor and 5% dextrose solution (1:2:27, v/v/v). Tumor-bearing mice were intravenously administered once weekly (qw) or bi-weekly (b2w) with multiple doses of vehicle control (5 mL/kg) and DBPR376 (2.5 mg/kg). Tumor size and body weight of each animal were measured twice weekly during the study period.
Compounds 8, 9, 11, 14, 16, 25, 26, and 27 were evaluated following the procedure described above.

| SMILES | IC50 [1] | Vss (I/kg) [2] | clearance [2] | AUC(0-t) [2] | AUC coverage [2] | inhibition of in vivo tumor growth [3] |
| --- | --- | --- | --- | --- | --- | --- |
| COc1cc2cc(c1Cl)N(C)C(=O)C[C@H](OC(=O)[C@H](C)N(C)C(=O)CCSSCCC(=O)NCCCC[C@@H](NC(=O)[C@H](Cc1ccc(O)cc1)NC(=O)[C@H](CO)NC(=O)[C@@H](Cc1cccnc1)NC(=O)[C@@H](Cc1ccc(Cl)cc1)NC(=O)[C@@H](Cc1ccc3ccccc3c1)NC(C)=O)C(=O)N[C@@H](CC(C)C)C(=O)N[C@@H](CCCNC(=N)N)C(=O)N1CCC[C@H]1C(=O)N[C@H](C)C(N)=O)[C@]1(C)O[C@H]1C(C)[C@@H]1C[C@@](O)(NC(=O)O1)[C@H](OC)/C=C/C=C(\C)C2 (stereo partly shown) [Compound 8] (Ac-[d2Nal][dPhe(4-Cl)][d3Pal]SY[dK](X1)LRP[dA]-NH2) | 0.1 to 1 nM | 0.25 I/kg | 1.6 mL/min/kg | 55100 ng·h/mL | extensive AUC coverage | effectively inhibited |
| COc1cc2cc(c1Cl)N(C)C(=O)C[C@H](OC(=O)[C@H](C)N(C)C(=O)CCSC(=O)c1ccc(CN(CCOCCOCCn3nnc4c3CC[C@@H]3[C@H](CC4)[C@H]3COC(=O)N(CCCC[C@H](NC(=O)[C@H](CC(C)C)NC(=O)[C@@H](Cc3ccc(NC(N)=O)cc3)NC(=O)[C@H](Cc3ccc(NC(=O)[C@@H]4CC(=O)NC(=O)N4)cc3)NC(=O)[C@H](CO)NC(=O)[C@@H](Cc3cccnc3)NC(=O)[C@@H](Cc3ccc(Cl)cc3)NC(=O)[C@@H](Cc3ccc4ccccc4c3)NC(C)=O)C(=O)N3CCC[C@H]3C(=O)N[C@H](C)C(N)=O)C(C)C)C(=O)C3(c4ccc(Cl)cc4)CCCCC3)cc1)[C@]1(C)O[C@H]1[C@H](C)[C@@H]1C[C@@](O)(NC(=O)O1)[C@H](OC)/C=C/C=C(\C)C2 [Compound 9] |  | 0.2 I/kg | 6.7 mL/min/kg | 12500 ng·h/mL | extensive AUC coverage | effectively inhibited |
| CCNC(=NCCCC[C@@H](NC(=O)[C@H](CC(C)C)NC(=O)[C@@H](CCCCNC(=O)OC[C@H]1[C@@H]2CCc3nnn(CCOCCOCCN(Cc4ccc(C(=O)SCCC(=O)N(C)[C@@H](C)C(=O)O[C@H]5CC(=O)N(C)c6cc(cc(OC)c6Cl)C/C(C)=C/C=C/[C@@H](OC)[C@@]6(O)C[C@H](OC(=O)N6)[C@@H](C)[C@@H]6O[C@@]56C)cc4)C(=O)C4(c5ccc(Cl)cc5)CCCCC4)c3CC[C@@H]21)NC(=O)[C@H](Cc1ccc(O)cc1)NC(=O)[C@H](CO)NC(=O)[C@@H](Cc1cccnc1)NC(=O)[C@@H](Cc1ccc(Cl)cc1)NC(=O)[C@@H](Cc1ccc2ccccc2c1)NC(C)=O)C(=O)N1CCC[C@H]1C(=O)N[C@H](C)C(N)=O)NCC [Compound 11] |  | 0.1 I/kg | 4 mL/min/kg | 21000 ng·h/mL |  | effectively inhibited |
| CCNC(=NCCCC[C@@H](NC(=O)[C@H](CC(C)C)NC(=O)[C@@H](CCCCNC(=O)CCSSCCC(=O)N(C)[C@@H](C)C(=O)O[C@H]1CC(=O)N(C)c2cc(cc(OC)c2Cl)C/C(C)=C/C=C/[C@@H](OC)[C@@]2(O)C[C@H](OC(=O)N2)C(C)[C@@H]2O[C@@]12C)NC(=O)[C@H](Cc1ccc(O)cc1)NC(=O)[C@H](CO)NC(=O)[C@@H](Cc1cccnc1)NC(=O)[C@@H](Cc1ccc(Cl)cc1)NC(=O)[C@@H](Cc1ccc2ccccc2c1)NC(C)=O)C(=O)N1CCC[C@H]1C(=O)N[C@H](C)C(N)=O)NCC (stereo partly shown) [Compound 14] (Ac-[d2Nal][dPhe(4-Cl)][d3Pal]SY[dK](X1)L[d(hArg(Et2))]P[dA]-NH2) | 1 to 10 nM | 0.2 I/kg | 0.9 mL/min/kg | 88300 ng·h/mL | extensive AUC coverage | effectively inhibited |
| COc1cc2cc(c1Cl)N(C)C(=O)C[C@H](OC(=O)[C@H](C)N(C)C(=O)CCSC(=O)c1ccc(CN(CCOCCOCCn3nnc4c3CC[C@H]3[C@@H](CC4)[C@@H]3COC(=O)NCCCC[C@@H](NC(=O)[C@H](Cc3ccc(O)cc3)NC(=O)[C@H](CO)NC(=O)[C@@H](Cc3cccnc3)NC(=O)[C@@H](Cc3ccc(Cl)cc3)NC(=O)[C@@H](Cc3ccc4ccccc4c3)NC(C)=O)C(=O)N[C@@H](CC(C)C)C(=O)N[C@@H](CCCNC(=N)N)C(=O)N3CCC[C@H]3C(=O)N[C@H](C)C(N)=O)C(=O)C3(c4ccc(Cl)cc4)CCCCC3)cc1)[C@]1(C)O[C@H]1[C@H](C)[C@@H]1C[C@@](O)(NC(=O)O1)[C@H](OC)/C=C/C=C(\C)C2 [Compound 16] |  | 0.5 I/kg | 15.5 mL/min/kg | 4860 ng·h/mL |  | effectively inhibited |
| COc1cc2cc(c1Cl)N(C)C(=O)C[C@H](OC(=O)[C@H](C)N(C)C(=O)CCSSCCC(=O)NCCOCCOCCn1nnc3c1CC[C@H]1[C@@H](CC3)[C@@H]1COC(=O)NCCCC[C@@H](NC(=O)[C@H](Cc1ccc(O)cc1)NC(=O)[C@H](CO)NC(=O)[C@@H](Cc1cccnc1)NC(=O)[C@@H](Cc1ccc(Cl)cc1)NC(=O)[C@@H](Cc1ccc3ccccc3c1)NC(C)=O)C(=O)N[C@@H](CC(C)C)C(=O)N[C@@H](CCCNC(=N)N)C(=O)N1CCC[C@H]1C(=O)N[C@H](C)C(N)=O)[C@]1(C)O[C@H]1[C@H](C)[C@@H]1C[C@@](O)(NC(=O)O1)[C@H](OC)/C=C/C=C(\C)C2 [Compound 25] (Ac-[d2Nal][dPhe(4-Cl)][d3Pal]SY[dK](X2)LRP[dA]-NH2) |  |  |  |  |  | effectively inhibited |
| CCNC(=NCCCC[C@@H](NC(=O)[C@H](CC(C)C)NC(=O)[C@@H](CCCCNC(=O)OC[C@H]1[C@@H]2CCc3nnn(CCOCCOCCNC(=O)CCSSCCC(=O)N(C)[C@@H](C)C(=O)O[C@H]4CC(=O)N(C)c5cc(cc(OC)c5Cl)C/C(C)=C/C=C/[C@@H](OC)[C@@]5(O)C[C@H](OC(=O)N5)[C@@H](C)[C@@H]5O[C@@]45C)c3CC[C@@H]21)NC(=O)[C@H](Cc1ccc(O)cc1)NC(=O)[C@H](CO)NC(=O)[C@@H](Cc1cccnc1)NC(=O)[C@@H](Cc1ccc(Cl)cc1)NC(=O)[C@@H](Cc1ccc2ccccc2c1)NC(C)=O)C(=O)N1CCC[C@H]1C(=O)N[C@H](C)C(N)=O)NCC [Compound 26] (Ac-[d2Nal][dPhe(4-Cl)][d3Pal]SY[dK](X2)L[d(hArg(Et2))]P[dA]-NH2) |  |  |  |  |  | effectively inhibited |
| COc1cc2cc(c1Cl)N(C)C(=O)C[C@H](OC(=O)[C@H](C)N(C)C(=O)CCSC(=O)c1ccc(CN(CCOCCOCCn3nnc4c3CC[C@H]3[C@@H](CC4)[C@@H]3COC(=O)NCCCC[C@@H](NC(=O)[C@H](Cc3ccc(O)cc3)NC(=O)[C@H](CO)NC(=O)[C@@H](Cc3cccnc3)NC(=O)[C@@H](Cc3ccc(Cl)cc3)NC(=O)[C@@H](Cc3ccc4ccccc4c3)NC(C)=O)C(=O)N[C@@H](CC(C)C)C(=O)N[C@H](CCCNC(=N)N)C(=O)N3CCC[C@H]3C(=O)N[C@H](C)C(N)=O)C(=O)C3(c4ccc(Cl)cc4)CCCCC3)cc1)[C@]1(C)O[C@H]1[C@H](C)[C@@H]1C[C@@](O)(NC(=O)O1)[C@H](OC)/C=C/C=C(\C)C2 [Compound 27] |  | 0.1 I/kg | 6.4 mL/min/kg | 15900 ng·h/mL |  | effectively inhibited |
